Like-named read-outs stand apart in the source and are kept apart here.

Assay [1] addresses recombinant DEN-2 virus E-glycoprotein antigen (wild type, from pCB8D2-2J-2-9-1) (dengue virus serotype 2 (carboxy-terminal 20% from JE virus)).
Assay [2] shares this target. The assay is described as follows: IFA, wild-type plasmid transfected cells.

mAb 3H5 (antibody): the mAb reactivity (end point) in assay [1] was over 6; in assay [2] it was over 4.4.

Turning to mAb 4E5 (antibody), the mAb reactivity (end point) was over 2.9 in assay [1] and 2.6 in assay [2].

Take mAb 4G2 (antibody): the mAb reactivity (end point) is over 6 in assay [1] and 3.8 in assay [2].

Source of the values: patent US20080248064A1.
